Measured values: the supplement of paper PMC9876800

System: peptide library, one residue held at a place counted from the S/T acceptor
Experiment: relative phosphorylation of the sub-library (ratio to the mean residue at this position); higher = residue favoured
Conditions: human
Procedure, shortened: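 Spots on streptavidin membranes were phosphorimaged and quantified by densitometry to measure phosphorylation of biotinylated degenerate peptide sub-libraries by purified recombinant kinases, human or orthologue constructs. The reactions ran in 384-well plates for 90 min under kinase-specific conditions, with peptides at 50 μM and 50 μM ATP spiked with γ-32P-ATP. Relative sub-library phosphorylation is the ratio to the mean residue at that position.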

Chain of SNRK, construct: aa1-505 (Q9NRH2 1-505, looked up): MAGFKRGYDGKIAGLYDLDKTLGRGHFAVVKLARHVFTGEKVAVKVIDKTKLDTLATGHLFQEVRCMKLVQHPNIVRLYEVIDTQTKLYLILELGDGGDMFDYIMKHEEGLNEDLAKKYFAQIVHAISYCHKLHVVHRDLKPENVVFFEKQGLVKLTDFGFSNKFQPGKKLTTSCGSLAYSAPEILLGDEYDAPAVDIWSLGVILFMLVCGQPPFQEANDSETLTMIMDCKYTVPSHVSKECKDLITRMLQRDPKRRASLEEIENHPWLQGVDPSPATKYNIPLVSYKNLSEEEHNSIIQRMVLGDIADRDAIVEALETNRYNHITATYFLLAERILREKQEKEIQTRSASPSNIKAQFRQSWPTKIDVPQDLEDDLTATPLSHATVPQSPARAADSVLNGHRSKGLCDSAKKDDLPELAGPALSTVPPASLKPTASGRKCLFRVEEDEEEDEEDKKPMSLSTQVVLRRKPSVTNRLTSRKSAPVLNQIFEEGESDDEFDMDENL
Chain of MAP4K2, construct: Full length (Q12851 whole entry, looked up): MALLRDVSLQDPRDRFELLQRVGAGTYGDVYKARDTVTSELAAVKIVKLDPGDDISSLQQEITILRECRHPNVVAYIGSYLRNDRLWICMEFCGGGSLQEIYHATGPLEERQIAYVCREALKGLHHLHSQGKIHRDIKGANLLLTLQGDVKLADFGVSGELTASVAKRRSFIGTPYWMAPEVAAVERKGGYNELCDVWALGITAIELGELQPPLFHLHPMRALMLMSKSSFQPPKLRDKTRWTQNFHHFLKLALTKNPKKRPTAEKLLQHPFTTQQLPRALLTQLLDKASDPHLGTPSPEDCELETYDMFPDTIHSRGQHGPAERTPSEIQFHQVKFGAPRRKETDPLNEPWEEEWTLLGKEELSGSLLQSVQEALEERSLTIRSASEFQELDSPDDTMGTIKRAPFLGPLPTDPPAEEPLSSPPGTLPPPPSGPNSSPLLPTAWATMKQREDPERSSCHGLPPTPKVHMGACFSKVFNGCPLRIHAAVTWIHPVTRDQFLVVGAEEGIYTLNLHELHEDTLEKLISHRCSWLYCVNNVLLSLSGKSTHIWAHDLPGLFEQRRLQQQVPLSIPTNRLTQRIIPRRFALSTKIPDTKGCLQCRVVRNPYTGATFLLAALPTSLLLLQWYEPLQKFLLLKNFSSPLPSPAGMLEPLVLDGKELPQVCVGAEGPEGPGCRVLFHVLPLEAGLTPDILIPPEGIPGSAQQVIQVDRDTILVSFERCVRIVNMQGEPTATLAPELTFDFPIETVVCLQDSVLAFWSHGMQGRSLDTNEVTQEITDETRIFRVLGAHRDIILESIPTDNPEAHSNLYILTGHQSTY

SNRK, construct: aa1-505 (from UniProt Q9NRH2)
relative phosphorylation
Conditions	at +1	at +2	at +3	at +4	at -1	at -2	at -3	at -4	at -5
A fixed	0.817	0.313	0.573	0.725	0.876	1.27	0.886	1.12	1.07
D fixed	0.421	0.215	0.614	0.532	0.73	0.301	0.279	0.572	0.568
E fixed	0.544	0.156	0.303	0.474	0.899	0.344	0.267	0.65	0.514
F fixed	1.81	3.56	2.34	1.08	0.944	1.31	0.898	0.944	1.27
G fixed	0.424	0.196	0.608	0.721	0.813	0.721	0.617	1.06	0.957
H fixed	0.863	0.998	1.16	0.969	1.1	1.47	1.04	1.15	1.1
I fixed	0.829	0.912	0.61	1.16	0.811	0.587	0.631	0.861	0.921
K fixed	1.09	0.431	0.691	1	1.06	1.12	1.99	1.42	1.31
L fixed	1.05	1.36	0.88	1.78	1.3	0.616	0.9	0.94	0.815
M fixed	1.4	1.34	0.934	1.18	1.31	0.91	0.979	1.03	0.937
N fixed	0.916	0.5	1.11	0.965	0.864	1.11	0.654	0.824	0.883
P fixed	0.171	0.276	0.354	1.02	0.823	0.426	0.613	0.748	0.807
Q fixed	1.35	0.567	0.661	1.16	1.08	1.14	0.908	0.942	0.89
R fixed	1.63	0.865	1.1	1.06	1.45	2.44	4.04	1.5	1.69
V fixed	0.936	0.585	0.531	0.924	0.93	0.78	0.498	0.911	0.996
W fixed	1.27	2.4	2.19	1.29	0.964	1.11	0.952	1.18	1.23
Y fixed	1.48	2.32	2.35	0.952	1.05	1.34	0.85	1.15	1.05
pThr fixed	0.702	0.42	0.371	0.477	0.913	0.613	0.526	0.7	0.726
pTyr fixed	0.777	0.522	0.548	0.425	1.03	0.512	0.522	0.735	0.73

MAP4K2, construct: Full length (from UniProt Q12851)
relative phosphorylation
Conditions	at +1	at +2	at +3	at +4	at -1	at -2	at -3	at -4	at -5
A fixed	0.468	0.739	0.703	0.786	0.858	1.1	0.767	0.881	0.946
D fixed	0.266	0.979	0.592	0.804	0.927	0.912	0.852	1.09	1.01
E fixed	0.259	0.759	0.52	0.815	0.595	0.575	0.769	1.03	0.889
F fixed	1.07	0.58	0.762	0.866	0.722	1.27	0.852	1.09	1.12
G fixed	0.742	0.986	0.999	1.07	1.61	1.19	1.45	1.37	1.26
H fixed	0.576	1.03	1.1	1.06	1.17	1.29	1.09	0.999	1.07
I fixed	1.6	0.396	0.506	0.662	0.251	0.574	0.457	0.596	0.629
K fixed	0.519	2.31	2.03	1.65	1.48	0.754	1.69	1.05	1.18
L fixed	3.02	0.649	0.694	0.82	0.868	0.634	0.558	0.688	0.662
M fixed	3.03	0.78	0.773	0.938	1.03	0.778	0.706	0.852	0.858
N fixed	0.852	1.24	1.26	1.2	1.88	1.14	1.28	0.955	0.971
P fixed	0.398	1.21	1.29	1.03	0.954	1.09	1.3	1.38	1.12
Q fixed	0.581	1.11	0.996	1.22	1.09	0.908	1.05	0.921	0.834
R fixed	0.55	2.4	2.41	1.41	1.43	1.01	1.51	1.12	1.24
V fixed	0.749	0.486	0.583	0.665	0.311	0.66	0.438	0.596	0.765
W fixed	1.43	0.652	1	1.15	0.765	1.38	1.19	1.29	1.28
Y fixed	0.892	0.689	0.783	0.866	1.05	1.75	1.04	1.1	1.16
pThr fixed	1.48	1.36	1.3	0.836	0.698	1.24	1.13	1.2	1.27
pTyr fixed	0.518	0.636	0.953	0.756	0.759	0.98	1.08	1.11	1.15
